The values that follow come from paper PMC2841437.

pKd: −log10 of the molar value.

For experiment [1], the target named is activated GST fusion protein of full-length human Akt1 (T308D/S473D) (human) (UniProt P31749). The experiment in a line: other fluorescence titration.
For experiment [2] the target is unchanged. The experiment in a line: pull-down.

UniProt P31749, sequence (P31749 whole entry T308D/S473D, the tested form may be a part): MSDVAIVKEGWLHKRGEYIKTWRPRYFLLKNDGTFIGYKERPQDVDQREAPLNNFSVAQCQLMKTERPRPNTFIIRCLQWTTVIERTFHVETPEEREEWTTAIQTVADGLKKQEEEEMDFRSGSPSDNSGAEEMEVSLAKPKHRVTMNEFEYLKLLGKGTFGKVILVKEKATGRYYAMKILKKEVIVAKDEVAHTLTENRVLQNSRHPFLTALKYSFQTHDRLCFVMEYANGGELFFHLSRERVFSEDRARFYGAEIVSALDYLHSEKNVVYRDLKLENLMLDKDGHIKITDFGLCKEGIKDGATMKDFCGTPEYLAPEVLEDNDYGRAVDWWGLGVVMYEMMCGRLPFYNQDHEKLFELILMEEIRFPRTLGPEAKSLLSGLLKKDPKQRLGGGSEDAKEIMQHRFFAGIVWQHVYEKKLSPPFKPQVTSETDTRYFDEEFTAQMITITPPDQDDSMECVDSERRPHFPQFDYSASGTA

“T7-tagged CBP CH3 fragment with T1872A (from UniProt P45481 1756-1878) (domain or fragment)” showed a pKd in experiment [1] of 8.92.

In turn, “T7-tagged CBP CH3 fragment with T1872D (from UniProt P45481 1756-1878) (domain or fragment)” showed a pKd in experiment [1] of 8.39. This pKd lies 0.53 log units lower than the previous one.

GSK-3α/β fusion protein gave a percentage of recovery in experiment [2] of 31.7%.
